Laboratory results from patent publication US20220119825A1, “SCALABLE PEPTIDE-GPCR INT[…] SYSTEMS” (THE TRUSTEES OF COLUMBIA UNIVERSITY IN THE CITY OF NEW YORK, priority 2019, published 2022).

Tests used:
Assay in all cases: cell-based or functional assay
[1] = biological target: T1, Sp.Ste2, Ste2-like mating GPCR of Schizosaccharomyces pombe (Schizosaccharomyces pombe, UniProt Q00619 1-348)
T1 sequence: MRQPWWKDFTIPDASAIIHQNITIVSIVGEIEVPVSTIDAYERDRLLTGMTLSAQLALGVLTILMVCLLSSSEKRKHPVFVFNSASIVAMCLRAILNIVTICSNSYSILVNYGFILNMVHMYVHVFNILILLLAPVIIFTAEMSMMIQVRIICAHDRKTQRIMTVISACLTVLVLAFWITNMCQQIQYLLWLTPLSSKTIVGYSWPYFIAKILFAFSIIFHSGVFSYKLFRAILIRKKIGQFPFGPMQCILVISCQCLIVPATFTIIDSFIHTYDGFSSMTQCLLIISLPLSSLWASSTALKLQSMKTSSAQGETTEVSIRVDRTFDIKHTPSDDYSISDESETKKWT

[2] = biological target: T2, Nc.Ste2, Ste2-like mating GPCR of Neurospora crassa (Neurospora crassa)
T2 chain: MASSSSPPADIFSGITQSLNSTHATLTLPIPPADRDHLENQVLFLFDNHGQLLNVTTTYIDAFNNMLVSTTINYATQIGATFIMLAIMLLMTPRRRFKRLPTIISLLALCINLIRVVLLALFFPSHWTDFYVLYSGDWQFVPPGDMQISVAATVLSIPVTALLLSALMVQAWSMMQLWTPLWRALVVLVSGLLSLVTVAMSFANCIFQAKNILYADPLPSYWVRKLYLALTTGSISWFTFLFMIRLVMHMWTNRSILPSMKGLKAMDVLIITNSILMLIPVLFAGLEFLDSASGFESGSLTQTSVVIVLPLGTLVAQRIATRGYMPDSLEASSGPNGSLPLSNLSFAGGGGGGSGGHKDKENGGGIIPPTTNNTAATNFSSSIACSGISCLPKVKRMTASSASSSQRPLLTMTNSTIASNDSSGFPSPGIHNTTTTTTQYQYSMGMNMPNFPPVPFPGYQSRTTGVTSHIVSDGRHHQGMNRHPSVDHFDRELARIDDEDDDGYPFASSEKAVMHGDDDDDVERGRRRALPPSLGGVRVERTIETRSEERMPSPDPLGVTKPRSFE

[3] = biological target: T3, Sca.Ste2, Ste2-like mating GPCR, code Sca (Saccharomyces castellii (Table 3 prints …))
T3 chain: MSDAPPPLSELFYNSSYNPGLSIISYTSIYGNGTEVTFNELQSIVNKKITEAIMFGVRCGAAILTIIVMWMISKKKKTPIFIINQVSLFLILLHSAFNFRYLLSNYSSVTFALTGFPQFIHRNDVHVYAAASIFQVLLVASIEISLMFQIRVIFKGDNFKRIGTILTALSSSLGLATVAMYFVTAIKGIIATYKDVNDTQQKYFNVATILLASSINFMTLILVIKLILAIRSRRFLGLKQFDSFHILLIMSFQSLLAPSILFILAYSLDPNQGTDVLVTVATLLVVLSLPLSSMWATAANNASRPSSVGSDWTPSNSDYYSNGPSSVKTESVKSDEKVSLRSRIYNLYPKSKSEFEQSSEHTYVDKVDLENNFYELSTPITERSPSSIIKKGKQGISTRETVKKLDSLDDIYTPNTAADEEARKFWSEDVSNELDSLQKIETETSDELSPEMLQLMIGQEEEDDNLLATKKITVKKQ

[4] = biological target: T4, Bm.Ste2, Ste2-like mating GPCR of Baudoinia compniacensis (Baudoinia compniacensis)
T4 chain: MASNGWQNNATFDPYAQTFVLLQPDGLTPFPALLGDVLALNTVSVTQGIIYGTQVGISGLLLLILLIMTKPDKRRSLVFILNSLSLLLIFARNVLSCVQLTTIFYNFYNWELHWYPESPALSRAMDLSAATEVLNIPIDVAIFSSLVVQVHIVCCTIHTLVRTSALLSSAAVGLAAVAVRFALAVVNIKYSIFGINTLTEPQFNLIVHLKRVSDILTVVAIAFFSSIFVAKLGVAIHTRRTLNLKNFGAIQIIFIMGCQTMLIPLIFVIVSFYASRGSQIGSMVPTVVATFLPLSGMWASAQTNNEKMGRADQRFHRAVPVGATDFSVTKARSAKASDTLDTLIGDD

[5] = biological target: T5, Pd.Ste2, Ste2-like mating GPCR of Pseudogymnoascus destructans (Pseudogymnoascus destructans)
T5 chain: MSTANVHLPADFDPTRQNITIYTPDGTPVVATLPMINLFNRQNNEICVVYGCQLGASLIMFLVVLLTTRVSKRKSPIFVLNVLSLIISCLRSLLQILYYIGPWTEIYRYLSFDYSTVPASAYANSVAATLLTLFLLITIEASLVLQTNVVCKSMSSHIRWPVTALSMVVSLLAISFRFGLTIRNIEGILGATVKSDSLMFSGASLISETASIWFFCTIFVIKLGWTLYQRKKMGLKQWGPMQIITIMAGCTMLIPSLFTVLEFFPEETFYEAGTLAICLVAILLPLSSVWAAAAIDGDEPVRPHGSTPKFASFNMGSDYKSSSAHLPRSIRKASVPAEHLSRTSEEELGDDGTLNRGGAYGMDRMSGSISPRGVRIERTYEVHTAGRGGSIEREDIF

[6] = biological target: T6, Pr.Ste2, Ste2-like mating GPCR of Penicillium chrysogenum (Penicillium chrysogenum)
T6 chain: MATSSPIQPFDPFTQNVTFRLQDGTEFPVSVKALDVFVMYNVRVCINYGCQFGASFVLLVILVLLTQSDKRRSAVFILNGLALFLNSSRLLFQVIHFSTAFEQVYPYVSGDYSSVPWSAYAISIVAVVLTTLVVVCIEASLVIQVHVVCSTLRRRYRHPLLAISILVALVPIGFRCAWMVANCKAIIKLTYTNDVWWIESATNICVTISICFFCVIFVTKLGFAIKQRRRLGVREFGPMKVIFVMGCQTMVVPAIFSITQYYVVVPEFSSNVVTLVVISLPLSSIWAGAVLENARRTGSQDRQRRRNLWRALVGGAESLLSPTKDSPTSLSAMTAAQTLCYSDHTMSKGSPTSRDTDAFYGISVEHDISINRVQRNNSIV

[7] = biological target: T7, Sj.Ste2, Ste2-like mating GPCR of Schizosaccharomyces japonicus (Schizosaccharomyces japonicus)
T7 chain: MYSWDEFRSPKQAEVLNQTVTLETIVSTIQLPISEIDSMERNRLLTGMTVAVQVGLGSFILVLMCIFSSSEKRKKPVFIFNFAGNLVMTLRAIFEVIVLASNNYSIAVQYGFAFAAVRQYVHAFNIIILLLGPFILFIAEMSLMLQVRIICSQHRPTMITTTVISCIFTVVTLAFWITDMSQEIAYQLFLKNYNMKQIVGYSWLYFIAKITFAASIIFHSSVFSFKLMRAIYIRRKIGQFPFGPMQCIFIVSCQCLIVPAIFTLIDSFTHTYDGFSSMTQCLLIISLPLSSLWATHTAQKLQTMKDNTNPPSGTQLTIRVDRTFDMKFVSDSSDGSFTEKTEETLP

[8] = biological target: T8, So.Ste2, Ste2-like mating GPCR of Schizosaccharomyces octosporus (Schizosaccharomyces octosporus)
T8 chain: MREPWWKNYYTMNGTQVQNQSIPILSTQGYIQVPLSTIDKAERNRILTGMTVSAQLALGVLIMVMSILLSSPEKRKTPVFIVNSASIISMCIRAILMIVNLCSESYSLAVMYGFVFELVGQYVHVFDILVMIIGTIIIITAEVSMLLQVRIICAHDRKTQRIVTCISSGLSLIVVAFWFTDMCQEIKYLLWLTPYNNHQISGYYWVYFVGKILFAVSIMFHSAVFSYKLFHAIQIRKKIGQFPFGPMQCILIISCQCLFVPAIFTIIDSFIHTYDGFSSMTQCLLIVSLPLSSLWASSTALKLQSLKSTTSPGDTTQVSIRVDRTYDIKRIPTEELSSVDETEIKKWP

[9] = biological target: T9, Ss.Ste2, Ste2-like mating GPCR of Scheffersomyces stipitis (Scheffersomyces stipitis)
T9 chain: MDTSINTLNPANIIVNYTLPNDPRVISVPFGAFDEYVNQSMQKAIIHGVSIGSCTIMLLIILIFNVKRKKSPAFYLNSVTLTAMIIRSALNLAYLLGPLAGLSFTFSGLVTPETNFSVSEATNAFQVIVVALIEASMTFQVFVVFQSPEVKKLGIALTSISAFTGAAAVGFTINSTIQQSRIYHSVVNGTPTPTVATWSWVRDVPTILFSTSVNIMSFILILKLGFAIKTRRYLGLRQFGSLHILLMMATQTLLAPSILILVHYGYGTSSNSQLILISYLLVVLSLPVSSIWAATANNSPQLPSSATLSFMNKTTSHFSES

TYADFLRAYQSWNTFVNPDRPNL [Sp peptide ligand #1 TYADFLRAYQSWNTFVNPDRPNL]
Bttm (FUS1p-RFP reporter) [1]: 29.6 fluorescence/A600 (not printed)
EC50 (FUS1p-RFP reporter) [1]: -6.2 log10 M (not printed)
Fold Change (FUS1p-RFP reporter) [1]: 7.6 fold
Span (FUS1p-RFP reporter) [1]: 195 fluorescence/A600 (not printed)
Top (FUS1p-RFP reporter) [1]: 224 fluorescence/A600 (not printed)

QWCRIHGQSCW [Nc peptide ligand #1 QWCRIHGQSCW]
Bttm (FUS1p-RFP reporter) [2]: 27.6 fluorescence/A600 (not printed)
EC50 (FUS1p-RFP reporter) [2]: -6.3 log10 M (not printed)
Fold Change (FUS1p-RFP reporter) [2]: 10.4 fold
Span (FUS1p-RFP reporter) [2]: 259 fluorescence/A600 (not printed)
Top (FUS1p-RFP reporter) [2]: 287 fluorescence/A600 (not printed)

NWHWLRLDPGQPLY [Sca peptide ligand #1 NWHWLRLDPGQPLY]
Bttm (FUS1p-RFP reporter) [3]: 24.3 fluorescence/A600 (not printed)
EC50 (FUS1p-RFP reporter) [3]: -8.1 log10 M (not printed)
Fold Change (FUS1p-RFP reporter) [3]: 6.4 fold
Span (FUS1p-RFP reporter) [3]: 131 fluorescence/A600 (not printed)
Top (FUS1p-RFP reporter) [3]: 155 fluorescence/A600 (not printed)

GWIGRCGVPGSSC [Bm peptide ligand #1 GWIGRCGVPGSSC]
Bttm (FUS1p-RFP reporter) [4]: 30.3 fluorescence/A600 (not printed)
EC50 (FUS1p-RFP reporter) [4]: -6.7 log10 M (not printed)
Fold Change (FUS1p-RFP reporter) [4]: 5.2 fold
Span (FUS1p-RFP reporter) [4]: 128 fluorescence/A600 (not printed)
Top (FUS1p-RFP reporter) [4]: 159 fluorescence/A600 (not printed)

FCWRPGQPCG [Pd peptide ligand #1 FCWRPGQPCG]
Bttm (FUS1p-RFP reporter) [5]: 28.8 fluorescence/A600 (not printed)
EC50 (FUS1p-RFP reporter) [5]: -7.7 log10 M (not printed)
Fold Change (FUS1p-RFP reporter) [5]: 6.6 fold
Span (FUS1p-RFP reporter) [5]: 161 fluorescence/A600 (not printed)
Top (FUS1p-RFP reporter) [5]: 190 fluorescence/A600 (not printed)

WCGHIGQGC [Pr peptide ligand #1 WCGHIGQGC]
Bttm (FUS1p-RFP reporter) [6]: 27.9 fluorescence/A600 (not printed)
EC50 (FUS1p-RFP reporter) [6]: -5.8 log10 M (not printed)
Fold Change (FUS1p-RFP reporter) [6]: 7.4 fold
Span (FUS1p-RFP reporter) [6]: 179 fluorescence/A600 (not printed)
Top (FUS1p-RFP reporter) [6]: 207 fluorescence/A600 (not printed)

VSDRVKQMLSHWWNFRNPDTANL [Sj peptide ligand #1 VSDRVKQMLSHWWNFRNPDTANL]
Bttm (FUS1p-RFP reporter) [7]: 21.2 fluorescence/A600 (not printed)
EC50 (FUS1p-RFP reporter) [7]: -7.8 log10 M (not printed)
Fold Change (FUS1p-RFP reporter) [7]: 14.7 fold
Span (FUS1p-RFP reporter) [7]: 290 fluorescence/A600 (not printed)
Top (FUS1p-RFP reporter) [7]: 311 fluorescence/A600 (not printed)

TYEDFLRVYKNWWSFQNPDRPDL [So peptide ligand #1 TYEDFLRVYKNWWSFQNPDRPDL]
Bttm (FUS1p-RFP reporter) [8]: 23.7 fluorescence/A600 (not printed)
EC50 (FUS1p-RFP reporter) [8]: -7.8 log10 M (not printed)
Fold Change (FUS1p-RFP reporter) [8]: 11.1 fold
Span (FUS1p-RFP reporter) [8]: 240 fluorescence/A600 (not printed)
Top (FUS1p-RFP reporter) [8]: 263 fluorescence/A600 (not printed)

WHWTSYGVFEPG [Ss peptide ligand #1 WHWTSYGVFEPG]
Bttm (FUS1p-RFP reporter) [9]: 23 fluorescence/A600 (not printed)
EC50 (FUS1p-RFP reporter) [9]: -7.9 log10 M (not printed)
Fold Change (FUS1p-RFP reporter) [9]: 13.8 fold
Span (FUS1p-RFP reporter) [9]: 295 fluorescence/A600 (not printed)
Top (FUS1p-RFP reporter) [9]: 318 fluorescence/A600 (not printed)
